The results in this text go back to a protein production outcome set (Wang et al. 2014).

The data set is described as follows: label from the status in PepcDB records.
“MITVLILRCIMVKSTTRKSAKSDRRRYNRIARFYDLFETPMELMNFRKWRKMLFDLIKAEKGLVLEIGAGTGKNIPHYPSNVVALDISEKMLERAVRRAKESGKKVDFLLADAENLPFRSNSFDVVFTTFVFCSVDDPVRGLREAFRVLKKGGRAYFLEHMLPKSRFLHPLFNLLNPIFRAFGPEINRRTDENIQRAGFQIVKEYMLFGSVFRLIVAEKPLDSVDEASGYSLKRSESSDSSNFRRFIGQSLLPLRLTQLLR”: the protein production entry is recorded as “failed”.
Then “QAELMTLTIVKGAQGFGFTIADSPTGQRVKQILDIQGCPGLCEGDLIVEINQQNVQNLSHTEVVDILKDCPIGSETSLIIHRG”, with “not failed”.
As to “MKKILCAVLLLFTGASWANSDDLETSGDVVHLLLPATALGATLFYEEGHEGSWQLLKAAVSSRVIVEGLKLGVNKDRPDGSGDDSFPSGHTSDSFMAATFIQQRYGWQYGLPAYLAASYVGYTRVESDKHYVEDVLAGAAIGMLAGWYFTEPYKGITVTPLAHNGVYGLYISGQF”, the protein production result was “failed”.
Then “MILCYGDNNIMMDIYKEIKEEMKKVYLSRDCCFVGYSGGKDSSAMLTLLWDAIAELPLEERTNPIHILTSEVGVETPAMTAYISRTLQKIQEKANEQNLPFVVHGVKPLMKESYWYKVIGRGVLPPSGNSRLRWCTDSLKVKPMQRKMKEILIASQTTTAVECFDEYDGVLMLAVRNEESARRRHSIQKHEISNDSLFSRHNDMKNILCFNPVKFLTGDEVWMLLLDRGI”, with “failed”; and “MTHLKIFLLLIVCALSVLDGKAQTGIALTDELNGKRIGVIGDSYVRNHKEPFENTWHYKFAKKHGMEYFNYGKNGNSIAYSSPRWGKAMYLRYAEMADSLDYVIVIGGHNDAFKLDSIGGIDNFKDKMEILCKGLVEKYPTAKIFFFTRWNCKNFKGSDSEKVVDAMIEVCGNYSIPIFDCARKGSIYADNDTFRRIYFQKSKNNTDTAHLNSKGHDRFLKVAESFLLQYLEHHHHHH”, with “failed”.
The result for “MGHILDSRRCALSVTQQQVLDSLARIKSPRGVALPNANVLSAISASDGKVFFSINVDAAEARAWEAVRAEAEAAVRAIPGATTVMVALTAERKPGSAPPPPPTPSRGTPGVQPVHAHKPPQGGGSPMARQSEIPGVAAVIAVASGKGGVGKSTTALNLALGLRDLGLKVGLLDADIYGPSVPRLTGLRDKPELDGERKMIPLRRFGLAIMSIGFLVEEETAMIWRGPMVMSAVTQMLRDVAWGSLDVLVVDMPPGTGDAQLTLAQNVPLKGAVIVSTPQDLSLIDARRGLAMFRKVNVPVLGIVENMSYFQCPHCGTKSDIFGHGGARHEAEKLGVPFLGEIPLHMAIRATSDAGNPVVDSEPDGPHAAIYRAIAGQVRDQLKGAIAAA” reads “failed”; that for “MSLSDAVNKHPKSPNPQLCAVTLLGNLVATPDIRYRANPATAVTEIVLATSSKWLDKITNKYKEWTSYHHVKVEGELVELALLNANKGDIILLHGYLSNIKPKSTDKSTNHLGIVHANFVQKFEKGYTQAINQIHCSAQLTSKPKLMLTEQNKNITQANIVINQHIYNTDKQAWQTISVERAIHVWGKQAQYLAEHGDIGDELMLEGKLSYTSGVSKDQFIEVKNVHLFKGTLEHHHHHH”, “not failed”; that for “GSSGSSGDGTCTGAMPDGALDTAVCADEVGSEEDLYDDLHSSSHHYSHPGGGGEQLAINELISDGSVVCAEALWDHVTMDDQELGFKAGDVIEVMDATNREWWWGRVADGEGWFPASFVRLRVNQDEPADDDAPLAGNSGAEDGGAEAQSSKDQMRTNVINEILSTERDYIKHLRDICEGYVRQCRKRADMFSEEQLRTIFGNIEDIYRCQKAFVKALEQRFNRERPHLSELGACFLEHQADFQIYSEYCNNHPNACVELSRLTKLSKYVYFFEACRLLQKMIDISLDGFLLTPVQKICKYPLQLAELLKYTHPQHRDFKDVEAALHAMKNVAQLINERKRRLENIDKIAQWQSSIEDWEGEDLLVRSSELIYSGELTRVTQPQAKSQQRMFFLFDHQLIYCKKDLLRRDVLYYKGRLDMDGLEVVDLEDGKDRDLHVSIKNAFRLHRGATGDSHLLCTRKPEQKQRWLKAFAREREQVQLD”, “not failed”.
As to “MRHLKSGRKLNRHSSHRLALYRNQAKSLLTHGRITTTVPKAKELRGFVDHLIHLAKRGDLHARRLVLRDLQDVKLVRKLFDEIAPRYRDRQGGYTRVLKLAERRRGDGAPLALVELVE”, the protein production result was “not failed”.
Then “MIMRKFASRVKDIQLSEIRKIFEVADEDTINLGIGEPDFSVPDHVREAVKDAVDEGLTHYTSNMGMEELREAIADKLKSENRVHAEPESIIVTVGASEAIFMCTQALLDIGDHALIPDPGFLSYDACVRLSGAVSIPVPLSMDEGFSMSPERVESLITQDTRVIIMNSPSNPTGSVMGKDDVKGIAEIAEDNDLIIISDEIYEKIIYDGKHYSPAQFTDNALIVNGFSKTYAMTGLRIGYVAGCEDIIEELLKVHQYNTACAPSISQYAALAAIRGPQNCVKDMVDEFRRRRDLMFRSLTDMGLECVLPGGAFYMFPYAGDSEEFTKLSLEAGVAVVPGSAFGNEGKGYIRMSYATSYELIEEAMERLKTVCGV”, with “failed”.
Then “MGKGDPKKPRGKMSSYAFFVQTCREEHKKKHPDASVNFSEFSKKCSERWKTMSAKEKGKFEDMAKADKARYEREMKTYIPPKGETKKKFKDPNAPKRPPSAFFLFCSEYRPKIKGEHPGLSIGDVAKKLGEMWNNTAADDKQPYEKKAAKLKEKYEKDIAAYRAKGKPDAAKKGVVKAEKSKKKKEEEEDEEDEEDEEEEEDEEDEDEEEDDDDE”, with “failed”; and “LHDTDQQGMFERGSAIVEPRFRSLLQQIGSMLGEIDNRLLVVGHTDAAQYHRAGGFAAMSNWSLSSNRAMAARLHMMQGGLAADSVLQVVGMAERAPLDKQHPLGAVNRRIELLVLTSGQAQA”, with “failed”.
Take “MATTLPRITARVDVDTQDLLAKAAALAGMSSINSFVLNAAIEKAKQVIEREQALKLSQADAVLLMEALDNPAVVNAKLKLASERYESKTQ”: the protein production result was “failed”.
Consider “MVAATSQNTFDSPRSPLYNFTMDIRPLSDVAGVILVGGRSRRMGRDKALIPLGGKPLVERVIDAFRPLFERILLVGDRGERFASYGLPVFPDIHPGSALGGLYTGLVRAGTPHVFVSACDVPWPDPRVIARLCSLREGFDVVVPRTVGGSEPLFAVYGTGCLPAMERMLREGNYRIYDFYPEVRTRYVEQAELADLVTPARTFVNVNTPEEFETIRNREEGMAIKAVSFVAKSGTGKTTLLEKVIAELKGRGYRIGVIKHDAHRFDIDHPGKDSHRLAAAGADTMLIASPEKLALVKKYDESPPLDELLATYFGDVDIVLTEGFKKSSLPKIEVHRMERSATLLCRGEEHDPTLVAVASDAALALDVPVFDLNNPAQVADFVERTFLAAGAALEHHHHHH”, for which the protein production entry is listed as “not failed”.
The result for “MKSQNPSKRNLPGVIIAYFLIYVVWGSTYFFIGVALKDFSPFLLGALRFTTAGLILLGICYLRGEQIFKKSLVKRSAVSGIVLLFVDMAVVMLAQRYLTSSLVAIIASSTALWILLLDVPMWRTNFRNPLTIAGGGIGFGGVVMLYAEQLNAEWLHPQSERGILLLVFGCISWALGTLYAKYRSSREEEVNAFAGSAWQMLFASVMFWICAVVNGDVREADLSTVSVTSWFSLLYLISFGSLLAYSAYVWLLKVRPAAEVGTHAYVNPFIAVLLGVSFGNEQVTFVQLSGLLVILLGVMLISRKRNKMKSTAISR” reads “failed”; that for “MTITSFGPANRIARTAETHPLTWRLRDDGEPVWLDEYQTKDGYAAARKALTQQAPDDIVQSVKDSGLKGRGGAGFPTGVKWGLMPKDESMNIRYLLCNADEMEPNTWKDRMLMEQLPHLLIEGMLISARALKAYRGYIFLRGEYVTAAKHLNRAVAEAKAAGLLGKNILGTGFDFELFVHTGAGRYICGEETALINSLEGRRANPRSKPPFPAAVGVWGKPTCVNNVETLCNVPAIVNNGNDWYKSLAREGSEDHGTKLMGFSGKVKNPGLWELPFGVQARELFEDYAGGMRDGFTLKCWQPGGAGTGFLLPEHLDAQMYAGGIAKVGTRMGTGLAMAVDDSVNMVSLLRNMEEFFAQESCGFCTPCRDGLPWSVKILRAIENGHGQPGDIETLLGLVNFLGPGKTFCAHAPGAVEPLGSAIKYFRSEFEAGIAPASAAMLVPGKSPTVVGALEHHHHHH”, “failed”; that for “MSDQKNRRNALIGAAFLMATSAIGPGFLTQTATFTQALAASFGFVILLSILLDIGAQLNIWRIVAVSEKQAQDIANQVLPGAGYFLAVLIVMGGLAFNIGNVGGAGLGLNLLTGLSPETGAVISGVIAIGVFLFKEAGKVMDKFAQVMGFVMIALTVYVAWQANPPLADAAVHTFMPEKLDAMAIVTLVGGTVGGYITFAGAHRLLDAGIKGKSALPEVSQSSVRAILIASIMRIVLFLAVLGVVSQGVQLNPDNPASTPFEYAAGYIGLLIFGVVIWAASITSVIGAAYTSVSFFSGLSPSIERNKNKWIIAFIAVSTAVFSTIGKPAQVLVFVGALNGLILPISLGLILIAAYKTKIVGDYKHPLWLTVSGVIVVGLMAVLSAITISKYIGGLFG”, “failed”.
The result for “MGKDGLSDDQVSSMKEAFMLFDTDGDGKIAPSELGILMRSLGGNPTQAQLKSIIASENLSSPFDFNRFLDLMAKHLKTEPFDRQLRDAFKVLDKEGTGFVAVADLRHILTSIGEKLEPNEFDEWIKEVDVGSDGKIRYEDFIARMVAK” reads “failed”.
Then “MTPFENLSELPAQNTRFNGRAGMGTWLVNRLLNNIERGRLRVTLPGGGTIEKSGHQEGSEAILMLHNWRAIRRVLVNGDIGFAEGFIENDWSTPDLTALIRFAAQNQDAFARSTRGSLPMRLINRMAHALNANTRRGSRRNIEAHYDLGNEFYRQWLDPSMLYSSAIFDDTTPTLEAAQRKKLERIAEKLQLTGNNSVLEIGCGWGALAIHLATQQNADVTGITLSPSQLRWAENAAEKESKAGRIDLRLQDYRDVQGQFDNIVSVEMFEAVGESYWPSYFEMLKRCLKPGGRAVLQIISIDESRFDTYRRKADFIQKYVFPGGFLPSDSALEKSVGQAGLKLTETELFGQSYALTLAEWRQRFHARWQTISLLGFDERFRRLWDYYLCYCEAGFAEGTINVGLYTIEHG”, with “failed”; and “MSSERVLSNARVVSAERVFVGSVLLRDGLIAAVDEGRSHLAGAEDLGGDYLLPGLVELHTDNLEKHMTPRPGVDWPSASAVLAHDAQIVSAGITTVFDALSIGDVNPKGKRMQQLPKMLEAIGEAAASGDARADHRLHLRCEVSHPQTLEVFRELVEHPLVQLVSVMDHAPGQRQFARLEKYREYYQGKYHLSDAEMDAFIVEQVANSERYSDAARAAIVDVCQGRGLSVASHDDATLAHVRESAGYGMAIAEFPTTVEAARASHEHGLQVLMGAPNVVRGGSHSGNVAAAQLAGIGVLDILSSDYYPASLLHAALLLAGEHSEYDAIRYDLPRAVAMVSRTPALAAGLTDRGEIRVGLRADLLQARALGNNQPVVRQVWRGGQRVF”, with “failed”; and “MEKNFILSVGMSVMFLFISSIKTVQAQQLGIGVKTELNGKVRFCNYDEAYFMPDTNTRIKVTGLEIAYDSSLNYYDIFVNVKGDKVNLHIKYSNGGEGAYIYKGIDRISKMDVVVTTKKKLSLYANNYGVNSYKEVESSVGIIIVFPKTYMISSIVPIKNKVETVNELSTQLRKGVITDSDGYTNIRKSNSVNSEIIGKIVDREVFTYWETNDNWYIVQTAKGIKGYVHKSRIKPVEERNEQKIRYYKVKNGDKIQDIAEKLGVSIDTICKLNRVKITTVLREGQALRISR”, with “failed”.
